# Assay: soluble on expression in E. coli; label from the status in PepcDB or PDB records
row,Sequence,soluble on expression in E. coli
1,PRGSHMAEYLRLPHSLAMIRLCNPPVNAVSPTVIREVRNGLQKAGSDHTVKAIVICGANGNFCAGADIHGFSAFTPGLALGSLVDEIQRYQKPVLAAIQGVALGGGLELALGCHYRIANAKARVGLPEVTLGILPGARGTQLLPRVVGVPVALDLITSGKYLSADEALRLGILDAVVKSDPVEEAIKFAQKIIDKPIEPRRIFNKPVPSLPNMDSVFAEAIAKVRKQYPGVLAPETCVRSIQASVKHPYEVGIKEEEKLFMYLRASGQAKALQYAFFAEKSANKWSTPSGASWKTASAQPVSSVGVLGLGTMGRGIAISFARVGISVVAVESDPKQLDAAKKIITFTLEKEASRAHQNGQASAKPKLRFSSSTKELSTVDLVVEAVFEDMNLKKKVFAELSALCKPGAFLCTNTSALNVDDIASSTDRPQLVIGTHFFSPAHVMRLLEVIPSRYSSPTTIATVMSLSKKIGKIGVVVGNCYGFVGNRMLAPYYNQGFFLLEEGSKPEDVDGVLEEFGFKMGPFRVSDLAGLDVGWKIRKGQGLTGPSLPPGTPVRKRGNSRYSPLGDMLCEAGRFGQKTGKGWYQYDKPLGRIHKPDPWLSTFLSQYREVHHIEQRTISKEEILERCLYSLINEAFRILEEGMAARPEHIDVIYLHGYGWPRHKGGPMFYAASVGLPTVLEKLQKYYRQNPDIPQLEPSDYLRRLVAQGSPPLKEWQSLAGPHGSKL,soluble
2,MVMATRVKNVGNWRIMPDATLAASYQAYKRCQNRRPDKAFTPHPAISAPMPDATLAASYQACKMCQNRVGRIRRSRRIRQLEHHHHHH,not soluble
3,MRGSHHHHHHGSRVMVIGGDGYCGWATALHLSKKNYEVCIVDNLVRRLFDHQLGLESLTPIASIHDRISRWKALTGKSIELYVGDICDFEFLAESFKSFEPDSVVHFGEQRSAPYSMIDRSRAVYTQHNNVIGTLNVLFAIKEFGEECHLVKLGAMGEYGTPNIDIEEGYITITHNGRTDTLPYPKQASSFYHLSKVHDSHNIAFTCKAWGIRATDLNQGVVYGVKTDETEMHEELRNRLDYDAVFGTALNRFCVQAAVGHPLTVYGKGGQTRGYLDIRDTVQCVEIAIANPAKAGEFRVFNQFTEQFSVNELASLVTKAGSKLGLDVKKMTVPNPRVEAEEHYYNAKHTKLMELGLEPHYLSDSLLDSLLNFAVQFKDRVDTKQIMPSVSWKKIGVKTKSMTT,soluble
4,MQVQRAITRNLAKANGYFNKTFKPPTVNYTVRGLKAGVAYLQQNQIRFNPILLQENGQAFIQQVIPHELAHILVFQQFGHVLPHGKEWQMMMEQVLGTSAEVYHTFNTQNVAGQQFAYICACQTHLLSIRLHNAILKNKRQYICKQCKQVLYYKDVLANYSNNTKKLEHHHHHH,not soluble
5,MGSDKIHHHHHHMRSLTNAEIAHNRLLNSGLLQSKFSSAEDATRALFGIQSQYQQFGEISLFNRVPNLTKENLQMAYDDKGIIKIWGQRMTIHMYTPDDWFYVHDVYANKNNWLRKHADSLGRDLDEILVQMEELLLREDKVSKESFAALLGNEAKELMTWGGVFIQGSLDGKLFCVPESPKTKFYSHRNQIDSEREDAWITNKRSKTGLETMIDRYFSAFGPATIQDFKHWSGLRNSDYIETLEKLLENYICYIGEDGKNYYSKAKTQENVEMGSPLLLGKFDPLFVSYAKKNWLASEKETSLIWRTAGQIEAVLIINAQFFGTWRYKISGDKIVFQFYLSKKLTKKGQKLVEKEAIKLAEFLLKNYQGSIFEQI,not soluble
6,GPGSMRSQRVLQRTRKQKMESSSCASAPIAVDAQDVVVPPAVAQARAWLSLYGACCTEEEVEMHPVVLSRVLQAVELVQSRSCLSSGSEGPLAATTTKHTCRSGEGDAEAATARSSPTALHEGDDSKRGKGEAGLSIDFGGLWMLLSEWIAILRSLVATVPLHTLSLRDTALGDAGLRCLCRQVATTSVKPASLEVASRCEACSFHLLGLSTLAAPPSCPPTIPGSWAASTLRLLDLSGAALTDGGPLASLLASCPQLHSLNLSDNSLGSRDAGLALLCAALQVHPSLEVLSLRRNCISGSRNGPAIAALAELIVARSVEGSRTLSKACGYGSALCRQQTPAAAAVAAQPLRRLDLSHNLLGTYFLLSDATMTHRAEAGRPSAAREYDMASSSGRHVGVHEAVASFPLVAALYLNNTLIELNLHNNGLPGALLEYVEAKLHVNQRTTGGGADFSKTVSTEIIASTTVRQVLIHRLRCTLDHILAGTANASGMVGATHTERGDAPPTEVPAESQSSVLSAAERRWTTGEVSELVQRLVYNVASDLSLF,not soluble
7,MSAEFERLLAQFERFQSKIKKVDDQLANVERMQSEIAELEATASNADRSITIVAGPGGAIKDIQLTDKALSQQPQALSAALMSTIQEAVAEAARKQAAIVDDHMGGQLNVTDQVLETQAQLFGTSPQELRERMEQERPIRQTPLRPEEEYHEDYSHQDFLGSDQEQQSPPPPPAPSGGSAGDEFLQNLFNNDDHR,not soluble
8,MQMESQRRDVFYVSDGTAITCETLGHVVLGQFAVQPNEKTFPFVESDEKLSELLKQIQRSYQLHGVKPLVFFSMVIPEMRTRLLQAPAHFYDVLESIVQRVSLDIEMEPAPKLQRSRSVGKDSDTYFDRIAAIEYTLAHDDGVSLKDLDRADIILLGVSRSGKTPTSLYMAMQFGLRVVNYPFIAEDMHAMRLLPEFEFHRHKLFGLTINAERLTEIRENRLAGSEYASNQQCQQELATVEALFRREAISYINTSSLSVEEISTRILERTGLKRRLF,not soluble
9,MACCLSEEAREQKRINQEIEKQLQRDKRNARRELKLLLLGTGESGKSTFIKQMRIIHGQGYSEEDKRAHIRLVYQNVFMAIQSMIRAMDTLDIKFGNESEELQEKAAVVREVDFESVTSFEEPYVSYIKELWEDSGIQECYDRRREYQLTDSAKYYLSDLRRLAVPDYLPTEQDILRVRVPTTGIIEYPFDLEQIIFRMVDVGGQRSERRKWIHCFENVTSIMFLVALSEYDQVLVECDNENRMEESKALFRTIITYPWFTNSSVILFLNKKDLLEEKILYSHLADYFPEYDGPPRDPIAAREFILKMFVDLNPDADKIIYSHFTCATDTENIRFVFAAVKDTILQHNLKEYNLV,not soluble
10,MAAQATAETPAGELPVIDAVTTHAPEVPPAIDRDYPAKVRVKMETVEKTMKMDDGVEYRYWTFDGDVPGRMIRVREGDTVEVEFSNNPSSTVPHNVDFHAATGQGGGAAATFTAPGRTSTFSFKALQPGLYIYHCAVAPVGMHIANGMYGLILVEPKEGLPKVDKEFYIVQGDFYTKGKKGAQGLQPFDMDKAVAEQPEYVVFNGHVGALTGDNALKAKAGETVRMYVGNGGPNLVSSFHVIGEIFDKVYVEGGKLINENVQSTIVPAGGSAIVEFKVDIPGNYTLVDHSIFRAFNKGALGQLKVEGAENPEIMTQKLSDTAYAVPR,soluble
11,MLMAATIPHIETITFTDWFLAIIDTPDIPIDEIEIRVAEGFKRKLTERQFQQLTELIHLISFIKHKKISNPTLALRIYVDENTSSLSRTALVEAVRMLPPEDNKTYELAAYLAQKNKLERYTNITKVPPLQIYQGDGVFEQYDEWILLFELFGLTQATPSDFIPAIAHLLITKNLGIPDLRALSKFMSTTHKLGILSQSFMNNMTPHLCNGQIIEKYESLLLKLQINDLLTEEILEVIYPLLNQPDALDAFFSLYHEEPSHDSALSFLREILPSFCAMSLPSKESYDDQVPTNTPLHLAVIESDKGNLERTLAFANRNLLIKCSYENTALLLACKLADKESARLILAKMQELGCDVNQRDHHGMTALHWANFYHFDELIRELEIAGADPQLKAANGKTCEYFYQHQFTLKDLKLNGKEIIDGEFKLSDCALTDIAFHMDKIALNLKLTTPSEIAELYARDEIAQIRSSNRFYLFFKLFRPKLINWLEKQNDLEPQVTYRFSGQSSSA,not soluble
12,MGSDKIHHHHHHMEQSMRKKNNNQINIVLNHRKKISLPAAENKTVISSETTTKHEMLQRIEEEMGKLVGMDDIKKIIKEIYAWIYVNKKRQEIGLKSEKQVLHMLFKGNPGTGKTTVARMIGKLLFEMNILSKGHLVEAERADLVGEYIGHTAQKTRDLIKKAMGGILFIDEAYSLARGGEKDFGKEAIDTLVKHMEDKQHGFVLILAGYSREMNHFLSLNPGLQSRFPFIIEFADYSVNQLLEIGKRMYEEREYQLSKEAEWKFRDHLHAVKYSSQITSFSNGRYVRNIVEKSIRTQAMRLLQEDAYDKYDLIGISSSDLMLEEETHST,not soluble
13,GPGSMEEGVDLREGLPEDVLAAVIAAPGQVTVEEARAQLNSSTSFRVDAGLVHLTADGAREQSQMETMLLKLATKIPPTGVSGAQFRAILEDEAPHFQPSAVGALSLKEAVQRYPRLFDVETDTTGKWFVRPAGVGKDGRASVGKNSGPISIINFCSERALMGNQADYVPLHVAMREESVASEGVLRDLVDSEELSKQLQIRFSVRLRPKRPVTNAFCFVDGDEIGLEAVDAIWKEMNLSDKSTRLVARQPTSRKHNSSDIVAPADMPTYAVVERKARELSLTQSVVLQDVIYMCSLRQFSLYADHIAKLNAFPDADVYVCCPSKVKLVAQKQFVPL,not soluble
14,MGSDKIHHHHHHMTLYLGIDTSAYTTSLAIVDEQAELVYENRKILTVPEGERGLAQSAALFQHVQNLPQLVTAVPPQYWEKVSALGVSTAPRPIQESYMPVFLPGYGVAAAMASARCIPLVETSHQEGHLAAGIASSKLKEPHFLAIHISGGTTELLEVHHTQPGKLDIQLLGGTTDLHAGQFVDRVGVRLGLPFPAGKSLEELARQADPGAAAWLPSAVRGFEVSFSGVETAAQRLIDQGKNPADVARAVEGCIVRTLGKLLQAGMEKTTLSEILIVGGVASNQFIRQELKKRLARHANLHWAEPDWSRDNAIGVALLALEKVRGCII,not soluble
15,MPIKIPDNLPAKEILTKENIFVMAESRAYSQDIRPLKIVILNLMPIKQTTETQLLRLLGNTPLQVEVSFMYTDTHISKNTSYDHLQTFYQTIDEVKQKKFDGMIITGAPIETLPYDEVDYWNELKQIMEWSKTNVTSTLHICWGAQAGLFYHYGVEKVPLPEKQFGVYPHKINVPNVKLLRGFDDEFYVPHSRHTDINKAQIEAHPDLEILSESEQAGVYIVASKDGKQIFVTGHSEYDACTLQQEYERDRARGLNIQVPENYFPNDDATRKPLLRWRAHSYLLFSNWLNYYVYQETPYDLSRMAGDPLEHHHHHH,soluble
16,MSEKLDLTRFEKKMVIRNIEEKDIDKIIDLQKDCFPGMEPWKREHLISHLEHFPEGQFCAEFEGEIIGSCSSLLINFDEYDDRHTWQDITDDGYITNHNPDGLNMYGIEVMVHPKYRRMKIGHRLYEARKDLARRLSLKSIIIGGRIPNYHKYAEEMTAREYVEQVTRHQIYDPVLSFQLMNGFTLMRINPNYLPDDTASIKY,not soluble
17,MTFLLKSCSTFFEKFCCCCKKYESEWNTQLESISLFAARRGFTDGEPYLILFGLCPNANKTFIVSENKLSDSNICLGDFLVACSDSPKNLKNFKKVPYPLDVTVEGDYAIISYSSMEAIKDISGILIFQTTDFGPIRSLNQNLDLDEYNITVHATGVSASGHVIELRAKAQPASNYRNSSVYENPSFLDDLSDEPLEIKKTISNNSLDGFSMEQLIQQLPTLELGEAENSVRVPQNLSAPRLMKAFVYSVHQYPHTKFHFLWICDIMEKSILKLPQYDFELGYFFEGIFKQKSNGKWECEQYNNKIEPLINGTVVINEYNGNEKVELTTTVTNYKPKNNTRKWPEVEAKYLGVVYDRHNKLPKNCEGQKVEVQMMKIDKEQYGWVITDILNE,not soluble
18,MTQWKNALSEGQLQQALELLIEAIKASPKDASLRSSFIELLCIDGDFERADEQLMQSIKLFPEYLPGASQLRHLVKAAQARKDFAQGAATAKVLGENEELTKSLVSFNLSMVSQDYEQVSELALQIEELRQEKGFLANDTSFSDVRDIDDRLGGYIELFSTAGNYFLVPIASINTLEIKSATSLLESVWRPVEFDIDGLGEGEGHMPMTYVDSESDAQKLGRETDWKQIADKEVYLGLGLKCWLVGEMALPISDLQNLQVIKELALEHHHHHH,soluble

# — the DeepSol protein solubility set
